The values below come from patent US20160068822A1.

In experiment [1] the target is TALE(KLF4)-NLS-CRY2PHR. Description: cell-based or functional assay.
The target of experiment [2] is TALE(Ngn2)-NLS-CRY2PHR. Put plainly: cell-based or functional assay.

In the case of CIB1-NLS-VP64-2A_GFP, in experiment [1], the KLF4 mRNA upregulation, saturated at 5 mW/cm2 (HEK293FT cells) amounted to 2.3 fold. Besides, in experiment [2], the Neurog2 expression peak at 12 h of light stimulation was determined as 19 fold, the Neurog2 mRNA level 0.5 h after the end of a 6 h stimulation came to 16 fold and the upregulation of Neurog2 expression at 0.5 h of light stimulation came out at 5 fold.
